# Reference: patent US20260234247A1 (published 2026)
# Numbering of substitutions follows the chain as printed.
# B1: LK-RB1-23 (antibody, human IgG4 S228P, kappa, V domains shown)
# VH: QVQLQQTGAELVRPGSSVKLSCKASGYTFTNYWMDWVKQRPGQGLEWIGNIHPFGNETHYNQKFKDKATLTVDKSSSTAYMQLSSLTSEDSAVYYCARGLLLYFDVWGTGTTVTVSS
# VL: DIQMTQSPASQSVSVGETVTITCRASENIYSNLAWYQQKQGKSPQLLVYGATNLADGVSLRFSGSGSGTQYSLKINSLQSEDFGSYYCQHFWGIPWTFGGGTKLEIKR
# B2: LK-RB1-16 (antibody, human IgG4 S228P, kappa, V domains shown)
# VH: QVQLKESGPGLVAPSQSLSITCTVSGFSLISNAISWVRQPPGKGLEWLGVIWGDGNTIYHSALRSRLTISKDNSKSQVFLKLNSLQIDDTATYYCAKANWDGYYFDYWGQGTTLTVSS
# VL: DIQMNQSPSSLSASLGDTITITCHASQSVDFWLNWYQQKPGNIPKLLISKASNLHTGVPSRFSGSGSGTTFTLTISSLQPEDIATYYCQQGQSYPLTFGSGTKLEIKR
# B3: LK-RB1-10 (antibody, human IgG4 S228P, kappa, V domains shown)
# VH: QVTLKESGPGILKPSQTLSLTCSFSGFSLSTSGTGVGWIRQPSGKGLEWLAHIWWNDDKYYKPSLKRQLTISKDTSRNQVFLKITSVDTADTATYYCTRTELGRGDYWGQGTSVTVSS
# VL: DILLTQSPAILSVSPGERVSFSCRASQSIGTNIHWYQQRMNGSPRLIIKYASELISGIPSRFSGSGSGTDFTLSINSVESEDIADYYCQQSYGWPYTFGGGTKLETKR
# B4: LK-RB1-14 (antibody, human IgG4 S228P, kappa, V domains shown)
# VH: B3 VH with T34M, N56D, K62N, R67S, T98A, Y107S
# VL: B3 VL with N32S, M40T, I47L, L54S, G93S, T106I
# B5: LK-RB1-8 (antibody, human IgG4 S228P, kappa, V domains shown)
# VH: QVQLQQSGAELVRPGTSVKVSCKASGYAFSNYLIEWVKQRPGQGLEWIGVINPGSDGSTYNEKFKGKATLTADKSSNTAYMQLSSLTSEDSAVYFCARGDYGRSYGMDYWGQGTSVTVSS
# VL: DIVMTQSQKFMSTTVGDRVSITCKASQNVGTAVVWYQQKPGQSPKLLIYSASNRYTGVPDRFTGSGSGTDFTLTISNMQSEDLADYFCQQYSSYMYTFGGGTKLEIKR
# B6: LK-RB1-11 (antibody, human IgG4 S228P, kappa, V domains shown)
# VH: QVTLKESGPGILQPSQTLSLTCSFSGFSLKTSGMSVGWIRQPSGKGLEWLAHIWWNDDKYYNPVLKGRLTISKDTSNNLVFLKIASVVSTDTATYYCVRYGNSHGYWYFDVWGTGTTVTVSS
# VL: NIVLTQSPASLAVSLGQRATISCRASESVDSYGNNFIHWYQQKPGQPPKVLIYYASNLEAGVPARFSGSGSRTDFTLTIDPVEAEDAATYYCQQNNEDPYTFGGGTKLEIER
# B7: LK-RB1-9 (antibody, human IgG4 S228P, kappa, V domains shown)
# VH: QIQLVQSGPELKKPGETVKISCTASGYTFTTYGMSWVKQAPGKGLKWMGWINTYSGVPTYADDFKGRFAFSLETSASTAYLEINNVKNEDTATYFCARRRRTYHGYLCFDYWGQGTTLTVSS
# VL: DIQMTQSPVSLSASVGETVTITCETSENIYGALNWYQRKQGKSPQLLIYGATNLADGMSSRFSGSGSGRQYSLEISSLHPDDVASYYCQNVLNTPWTFGGGTKLEIKR
# B8: LK-RB1-20 (antibody, human IgG4 S228P, kappa)
# heavy: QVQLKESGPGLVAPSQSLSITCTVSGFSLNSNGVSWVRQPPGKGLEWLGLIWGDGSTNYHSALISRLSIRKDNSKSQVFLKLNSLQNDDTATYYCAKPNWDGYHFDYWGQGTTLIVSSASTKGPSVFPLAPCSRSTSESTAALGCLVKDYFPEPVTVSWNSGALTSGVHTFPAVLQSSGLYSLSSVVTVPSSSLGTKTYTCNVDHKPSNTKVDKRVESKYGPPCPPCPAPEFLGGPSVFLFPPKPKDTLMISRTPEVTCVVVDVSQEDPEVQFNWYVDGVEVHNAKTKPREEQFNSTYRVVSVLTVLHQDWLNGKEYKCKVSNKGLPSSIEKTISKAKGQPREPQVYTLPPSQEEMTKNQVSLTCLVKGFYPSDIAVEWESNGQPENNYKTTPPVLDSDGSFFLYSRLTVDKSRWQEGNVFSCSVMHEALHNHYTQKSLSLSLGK
# light: DIQMNQSPSSLSASLGDTITITCHASQNIDFWLSWYQQKPGNIPKLLIYKASNLHTGVPSRFSGSGSGTGFTLTISSLQPEDIATYYCQQGQSYPLTFGAGTKLELKRTVAAPSVFIFPPSDEQLKSGTASVVCLLNNFYPREAKVQWKVDNALQSGNSQESVTEQDSKDSTYSLSSTLTLSKADYEKHKVYACEVTHQGLSSPVTKSFNRGEC
# B9: LK-RB1-24 (antibody, human IgG4 S228P, kappa, V domains shown)
# VH: QVQLQQPGAELVNPGTSVNLSCKASGYTFTGYWMHWVKQRPGQGLEWIGMIHPNNGGTIYNERFNGKATLTVDRSSTTAYIQLSSLTSEDSAVYYCAYWDLDYWGQGTTLTVSS
# VL: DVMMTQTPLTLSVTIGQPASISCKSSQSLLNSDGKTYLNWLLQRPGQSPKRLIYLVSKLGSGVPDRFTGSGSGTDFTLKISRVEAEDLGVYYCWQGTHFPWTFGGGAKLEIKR
# B10: LK-RB1-6 (antibody, human IgG4 S228P, kappa, V domains shown)
# VH: QIQLVQSGPELKKPGETVKISCKASGYTFTTYGMSWVKQAPGKDLKWMGWINTFSGVPACADDFQGRFDFSAEPSDSTAHLQINNLKNEDTATYFCARRSYYGSRGWYFDVWGTGTTVTVSS
# VL: DIVMTQSHKFMSTSVGDRVSITCTASEDVNTAVAWYQQKPGQSPKLLIYWASTRHTGVPDRFTGSGSGTDYTLTISSVQTEDLALYYCQQHYNTPYTFGGGTKLEIKR
# B11: LK-RB1-7 (antibody, human IgG4 S228P, kappa, V domains shown)
# VH: B10 VH
# VL: DVQMIQSPSSLSASLGDIVTMTCQASQDTTINLNWFQQKPGKVPKLLIYGASNLEDGVPSRFSGSSFGTDFTLTISSLEDEDMATYFCLQHTYLPRTFGGGTKLEIRR
# B12: LK-RB1-12 (antibody, human IgG4 S228P, kappa, V domains shown)
# VH: QVQLQQSGTELVRPGSSVMISCKASGYAFSTYWMDWVKQRPGQGLEWIGQIYPGDGATNYNGKFKGKATLTADKSSITAYMHLSSLTSEDSAVYFCLRSRDYDGWFFDVWGAGTTVTVSS
# VL: B10 VL with V15I, T24K, E27Q, N30S, T31S, I75F, T80A, N93S, Y96W
# B13: LK-RB1-25 (antibody, human IgG4 S228P, kappa, V domains shown)
# VH: QIQLVQSGPELKKPGETVKISCKASGYTFTSYGMNWMKQAPGEGLKWMGWINTYSGVPTYADDFKGRFAFSLETSATTVYLQINNLKNEDKATYFCARRGRDSVVGHFDVWGTGTTVTVSS
# VL: B10 VL with T24K, E27Q, Y71F, T80A, N93T, T94I, Y96F, G100S
# B14: LK-RB1-33 (antibody, human IgG4 S228P, kappa, V domains shown)
# VH: B13 VH with E16D, M37V, A61G, T77S, V79A, K87E, K91T
# VL: B10 VL with T24K, E27Q, Y71F, T80A, N93T, T94I, Y96F, G100S, K103R
# B15: LK-RB1-18 (antibody, human IgG4 S228P, kappa, V domains shown)
# VH: QVQLKESGPGLVAPSQSLSITCTVSGFSLTNSGVTWIRQPPGKGLEWLGVIWGDGSTNYHSALISRLSISKDNSKSQVFLKLNSLQTDDTATYYCAKPHWDYYNMDYWGQGTSVTVSS
# VL: DIQMTQTPSSLSASLGDRVTISCRASQDISNYLNWYQQKPDGTVKLLIYFTSRLHSGVPSRFSGSGSGTDYSLTISNLEQEDFATYFCQQGITLPLTFGAGTKLELKR
# B16: LK-RB1-19 (antibody, human IgG4 S228P, kappa, V domains shown)
# VH: QVQLKESGPGLVAPSQNLSITCTVSGFSLTSYGVSWVRQPPGKGLEWLGIIWGDGNTDYHSALISRLSIRKDNSKSQVFLKLNSLKSDDTATYYCAKPHWEYYTMDYWGQGTSVTVSS
# VL: B15 VL with P8T, Y32F, F50S, S76A, F83V, I92N
# B17: LK-RB1-22 (antibody, human IgG4 S228P, kappa, V domains shown)
# VH: B16 VH with N17S, D58N, I64T, R70S, K86R, S87T, E101D, Y102H, T104S
# VL: B15 VL with P8T, Y32F, F50Y, V58A, E79D, F83I, I92N
# B18: LK-RB1-21 (antibody, human IgG4 S228P, kappa, V domains shown)
# VH: QVQLQQPGAELVKPGASVKMSCKASGYIFTDYWTTWVKQRPGQGLEWIGDIYPVSGSTNYNEKFKNKATLTVDTSSSTAYMQLSSLTSEDSAVYYCARALGRRYYFDYWGQGTTLTVSS
# VL: DIVMTQSHKFMSTSIGDRVSITCKASQDVSTAVAWCQQKPGQSPKSLIYSASYRYTGIPDRFTGSGSGTDFTFTISSVQAEDLAVYYCQQHYTNPVTFGTGTKLELKR
# B19: LK-RB1-13 (antibody, human IgG4 S228P, kappa, V domains shown)
# VH: QVTLKESGPGIVKPSQTLSLTCSFSGFSLSISGTGIGWIRQPSGKGLEWLAHIWWDDDKYYNPSLKSQVTISKDTSTKQVFLNITSVDTADTATYYCTRTELGRGDFWGQGTSVTVSS
# VL: DILLTQSPAILSVSPGDRVSFSCRASQSTGTNIHWYQRRTNGSPRLLIKYGSESISGIPSRFSGSGTGTDFTLTINSVESEDIADYYCQQSYSWPYTFGGGTKLEIKR
# B20: LK-RB1-15 (antibody, human IgG4 S228P, kappa, V domains shown)
# VH: B19 VH
# VL: B19 VL with T29I
# Target: T1, human LILRB1 on CHOK1 cells (human, UniProt Q8NHL6 24-650)
# T1 construct: whole, on cells; also called CHOK1-hLILRB1; CHOK1-LILRB1
# T1 sequence (Q8NHL6 24-650): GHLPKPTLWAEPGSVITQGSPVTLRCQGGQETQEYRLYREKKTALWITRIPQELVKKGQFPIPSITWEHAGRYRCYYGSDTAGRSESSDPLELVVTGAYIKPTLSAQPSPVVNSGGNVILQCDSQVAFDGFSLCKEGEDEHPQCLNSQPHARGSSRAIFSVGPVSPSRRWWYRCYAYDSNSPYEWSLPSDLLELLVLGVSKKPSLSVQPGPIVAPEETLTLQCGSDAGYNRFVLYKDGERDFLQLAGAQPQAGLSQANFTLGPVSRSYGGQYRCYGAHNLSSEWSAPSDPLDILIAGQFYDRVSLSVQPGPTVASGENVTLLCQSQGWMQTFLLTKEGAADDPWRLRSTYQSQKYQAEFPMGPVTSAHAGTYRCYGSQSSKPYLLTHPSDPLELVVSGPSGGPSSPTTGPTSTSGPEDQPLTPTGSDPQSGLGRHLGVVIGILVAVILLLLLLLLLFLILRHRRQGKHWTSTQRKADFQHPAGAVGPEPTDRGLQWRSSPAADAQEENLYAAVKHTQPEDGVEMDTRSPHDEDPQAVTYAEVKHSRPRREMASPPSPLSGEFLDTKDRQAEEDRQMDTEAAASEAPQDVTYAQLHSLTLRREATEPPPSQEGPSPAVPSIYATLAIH
# Experiment: FACS binding, CHOK1-hLILRB1 cells
row,EC50 [pM],Binder
1,730,B1
2,810,B2
3,700,B3
4,470,B4
5,1140,B5
6,610,B6
7,340,B7
8,850,B8
9,1480,B9
10,220,B10
11,220,B11
12,170,B12
13,1070,B13
14,1130,B14
15,580,B15
16,300,B16
17,1760,B17
18,1880,B18
19,200,B19
20,640,B20

# Target: T1, human LILRB1 on CHOK1 cells
# Experiment: cell-based RBA (FACS): blocking of HLA-G binding to CHOK1-hLILRB1 cells
EC50 [pM],Top Inhibition (%),Binder
560,95.3,B1
530,98.2,B2
1040,83.1,B3
650,81.2,B4
2560,86.9,B5
1340,78.9,B6
780,88.1,B7
520,97.4,B8
9070,64.8,B9
540,69.7,B10
540,69.7,B11
370,79.2,B12
620,98.1,B13
1380,92.7,B14
470,98.7,B15
490,98.2,B16
1400,100,B17
530,98.1,B18
420,81.8,B19
790,67.3,B20

# Target: T2, human LILRB2 on CHOK1 cells (human, UniProt Q8N423 22-597)
# T2 construct: whole, on cells; also called CHOK1-hLILRB2; CHOK1-LILRB2
# T2 sequence (Q8N423 22-597): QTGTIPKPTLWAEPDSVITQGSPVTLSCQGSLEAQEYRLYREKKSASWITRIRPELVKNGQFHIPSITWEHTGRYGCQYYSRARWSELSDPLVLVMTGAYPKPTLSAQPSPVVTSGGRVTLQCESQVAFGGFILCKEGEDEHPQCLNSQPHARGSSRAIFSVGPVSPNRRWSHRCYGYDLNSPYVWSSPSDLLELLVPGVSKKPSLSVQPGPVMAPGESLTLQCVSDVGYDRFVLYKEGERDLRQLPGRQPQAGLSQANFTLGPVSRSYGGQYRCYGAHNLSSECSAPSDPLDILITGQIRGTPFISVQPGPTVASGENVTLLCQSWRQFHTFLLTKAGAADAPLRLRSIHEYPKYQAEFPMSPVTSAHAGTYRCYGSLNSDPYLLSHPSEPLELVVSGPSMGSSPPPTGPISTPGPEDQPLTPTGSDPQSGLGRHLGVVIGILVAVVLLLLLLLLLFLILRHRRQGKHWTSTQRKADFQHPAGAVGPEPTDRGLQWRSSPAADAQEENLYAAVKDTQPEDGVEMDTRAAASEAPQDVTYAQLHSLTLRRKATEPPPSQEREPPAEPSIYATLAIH
# Experiment: FACS binding, CHOK1-hLILRB2 cells
binding result,EC50 [pM],Binder
no binding,–,B1
no binding,–,B2
no binding,–,B3
no binding,–,B4
no binding,–,B5
no binding,–,B6
no binding,–,B7
no binding,–,B8
–,1040,B9
no binding,–,B10
no binding,–,B11
no binding,–,B12
no binding,–,B13
no binding,–,B14
no binding,–,B15
no binding,–,B16
no binding,–,B17
no binding,–,B18
no binding,–,B19
no binding,–,B20
